Assays:
[1] = biological target: HD1 (MBP-HD1);GHD8 (His-GHD8, NF-YB) (Oryza sativa (rice);Oryza sativa (rice), UniProt Q9FDX8;Q0J7P4 1-395;1-297, |); assay: EMSA; 5 mM Tris pH 7.5, 25 mM KCl, 0.5 mM DTT, 5 mM MgCl2, 2.5% glycerol, 0.05% NP-40, 50 ng/uL poly(dI-dC), room temperature 20 min, 5% polyacrylamide gel; conditions: protein: recombinant;recombinant; tags: MBP (pMAL-c2X; text says MBP 'at the down-stream');N-terminal thioredoxin-His (pET-32); copies: 1;1; label: 3'-biotin; blunt
[2] = biological target: HD1 (MBP-HD1);GHD8 (His-GHD8, NF-YB);OsHAP5b (His-HAP5b, NF-YC) (Oryza sativa (rice);Oryza sativa …, UniProt Q9FDX8;Q0J7P4;Q655V5 1-395;1-297;1-250, ||); assay: EMSA; considerably stronger signal than HD1 alone; 50x/100x unlabeled F1 competitor; 5 mM Tris pH 7.5, 25 mM KCl, 0.5 mM DTT, 5 mM MgCl2, 2.5% glycerol, 0.05% NP-40, 50 ng/uL poly(dI-dC), room temperature 20 min, 5% polyacrylamide gel; conditions: protein: recombinant;recombinant;recombinant; tags: MBP (pMAL-c2X); copies: 1;1;1; label: 3'-biotin; blunt
Chain of HD1 (MBP-HD1);GHD8 (His-GHD8, NF-YB);OsHAP5b (His-HAP5b, NF-YC) (Q9FDX8 whole entry, chain 1 of 3): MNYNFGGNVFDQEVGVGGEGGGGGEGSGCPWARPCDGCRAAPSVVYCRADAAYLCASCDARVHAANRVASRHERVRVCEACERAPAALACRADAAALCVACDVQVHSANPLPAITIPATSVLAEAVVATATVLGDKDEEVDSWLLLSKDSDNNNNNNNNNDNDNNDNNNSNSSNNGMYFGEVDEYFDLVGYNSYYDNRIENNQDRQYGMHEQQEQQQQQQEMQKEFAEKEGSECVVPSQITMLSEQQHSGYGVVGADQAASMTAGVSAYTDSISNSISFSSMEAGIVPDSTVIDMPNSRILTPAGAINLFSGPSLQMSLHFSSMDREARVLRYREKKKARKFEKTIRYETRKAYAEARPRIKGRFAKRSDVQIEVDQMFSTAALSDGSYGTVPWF
Chain of HD1 (MBP-HD1);GHD8 (His-GHD8, NF-YB);OsHAP5b (His-HAP5b, NF-YC) (Q0J7P4 whole entry, chain 2 of 3): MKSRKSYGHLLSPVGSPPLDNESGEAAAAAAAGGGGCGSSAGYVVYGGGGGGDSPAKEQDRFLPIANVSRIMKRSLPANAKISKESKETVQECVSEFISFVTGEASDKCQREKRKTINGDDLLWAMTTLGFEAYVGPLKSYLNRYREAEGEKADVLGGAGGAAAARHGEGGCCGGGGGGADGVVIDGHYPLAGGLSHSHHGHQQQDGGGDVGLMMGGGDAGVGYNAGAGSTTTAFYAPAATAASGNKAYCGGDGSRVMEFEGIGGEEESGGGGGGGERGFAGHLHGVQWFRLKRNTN
Chain of HD1 (MBP-HD1);GHD8 (His-GHD8, NF-YB);OsHAP5b (His-HAP5b, NF-YC) (Q655V5 whole entry, chain 3 of 3): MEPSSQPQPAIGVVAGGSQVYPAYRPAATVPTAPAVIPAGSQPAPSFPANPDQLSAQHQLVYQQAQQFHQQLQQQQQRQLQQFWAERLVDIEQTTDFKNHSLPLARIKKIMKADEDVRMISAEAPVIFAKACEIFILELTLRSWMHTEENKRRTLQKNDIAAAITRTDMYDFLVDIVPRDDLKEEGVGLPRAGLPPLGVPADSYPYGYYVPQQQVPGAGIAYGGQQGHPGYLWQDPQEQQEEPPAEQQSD

Chain of HD1 (MBP-HD1);GHD8 (His-GHD8, NF-YB) (Q9FDX8 whole entry, chain 1 of 2): as the sequence (Q9FDX8 whole entry, chain 1 of 3) above
Chain of HD1 (MBP-HD1);GHD8 (His-GHD8, NF-YB) (Q0J7P4 whole entry, chain 2 of 2): as the sequence (Q0J7P4 whole entry, chain 2 of 3) above

B1: F1 (dsDNA)
DNA 1: ATCTGGTTGCAATGGGGATGGCCAATGAGGAGTCG
DNA 2: CGACTCCTCATTGGCCATCCCCATTGCAACCAGAT
[1]
  binding result: binds
[2]
  binding result: binds

From PMC6825352, “Ghd8 controls rice photoperiod sensitivity by forming a complex that interacts with Ghd7”
